# Measured values as given in PMC10344970.
# Assays:
# Test in all cases: purified protein
# [1] = test system: Oc1ccc2c(O)cccc2c1; details: co-substrate 1 mM DMAPP, 50 mM Tris-HCl, 10 mM CaCl2, 5% DMSO, 37 °C, 15 min
# [2] = test system: CC(C)=CCC/C(C)=C/COP(=O)(O)OP(=O)(O)O; details: co-substrate 1-hydroxynaphthalene (1), 50 mM Tris-HCl, 10 mM CaCl2, 5% DMSO, 37 °C, 15 min, substrate inhibition at 1.0 mM or higher
# [3] = test system: Oc1ccc2cccc(O)c2c1; details: co-substrate 1 mM DMAPP, 50 mM Tris-HCl, 10 mM CaCl2, 5% DMSO, 37 °C, 15 min
substance,measurement,setting,value
ShPT (Stereum hirsutum FP-91666 SS1),Km,[1],660 ± 100 µM
same,kcat,[1],0.13 ± 0.01 s⁻¹
same,kcat/Km,[1],197 M⁻¹ s⁻¹
same,Km,[2],1010 ± 50 µM
same,kcat,[2],0.36 ± 0.01 s⁻¹
same,kcat/Km,[2],357 M⁻¹ s⁻¹
same,Km,[3],920 ± 10 µM
same,kcat,[3],0.46 ± 0.04 s⁻¹
same,kcat/Km,[3],511 M⁻¹ s⁻¹
